# Laboratory results published in the supplement of paper PMC10201428.
# ± gives the standard deviation of the averaged measurements.
# B1: library; a variant is named by its letters at N, in order (parent)
# chain: ACATTTGTTGATACAACCATAAAATGATAATTACACCCATAAATTGATAATTATCACACCCANNNNNNNNNNNNNNCTCTGATCATAGTCAGACCAACATTGCTACGACCCGTATTCGCACCGACAC
# Experiments:
# [1] = variants of: B1; assay: relative integration efficiency (T-RL orientation) vs wild-type transposon end (log2 (normalized fold change)); transposon end mutated: right end (5 bp flank + 75 bp right end); higher = more efficient transposition; conditions: with VchCAST RNA-guided transposition machinery (E. coli BL21(DE3) host, lacZ target)
# Description: (§1)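 Pooled, barcoded VchCAST (Tn6677) mini-transposon donor libraries; each variable transposon-end sequence sits in a fixed pDonor mini-transposon context (10-bp barcode and cargo not included). Left- or right-end libraries were co-transformed with pEffector (TniQ-Cascade, TnsABC, lacZ crRNA, T7, 0.1 mM IPTG) into E. coli BL21(DE3) and grown 18 h at 37 C. T-LR and T-RL junction amplicons were sequenced; output/input barcode fold change was normalised to the mean of four wild-type barcodes and log2-transformed. Two biological replicates; zero-count/undetected variants carry floor values (-10 / -15), censored here. Barcode uncoupling by PCR recombination adds noise.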
# [2] = variants of: B1; assay: relative integration efficiency (T-LR orientation) vs wild-type transposon end (log2 (normalized fold change)); transposon end mutated: right end (5 bp flank + 75 bp right end); higher = more efficient transposition; conditions: with VchCAST RNA-guided transposition machinery (E. coli BL21(DE3) host, lacZ target)
# Description: as §1
Variant,relative integration efficiency (log2) [1],relative integration efficiency (log2) [2]
ATTTAACTATAACG T8A,-1.56 ± 0.29,0.918 ± 0.079
ATTTAACTATAACG T45G,-1.16 ± 0.28,1.56 ± 0.031
ATTTAACTATAACG T45A,-1.14 ± 0.22,1.93 ± 0.065
TAAATTTCGCTTGC,-0.702 ± 0.069,2.429 ± 0.022
TAAATTGATATACC,-0.223 ± 0.13,0.207 ± 0.58
TAAATTGATTATGC,-0.138 ± 0.008,0.414 ± 0.43
TACCGGGATATTGC,-0.561 ± 0.028,2.282 ± 0.0082
TAAATTGATATTGC C55A,-0.759 ± 0.066,0.402 ± 0.41
TAAATTGATATTGC T40C,-0.609 ± 0.017,-0.859 ± 0.091
TAAATTGATATTGC T40A,-0.0544 ± 0.14,-0.355 ± 0.17
TATATTGATATCTC C59A,-0.231 ± 0.072,-0.123 ± 0.17
GAAATTGATATTGC A62C,-0.604 ± 0.16,2.52 ± 0.065
TAAATTGATATTGC C77A,-0.111 ± 0.093,-0.0608 ± 0.27
TAAATTGATATTGC C77G,0.0121 ± 0.017,-0.217 ± 0.018
TAAATTGATATTGC C77T,-0.00923 ± 0.0046,-0.351 ± 0.044
ATTTAACTATAACG A58T,-0.708 ± 0.029,2.39 ± 0.19
ATTTAACTATAACG C34G,-1.76 ± 0.18,1.73 ± 0.16
TAAATTGATCGGTC,-0.277 ± 0.017,1.42 ± 0.094
TAAATTGATATTGC G10C,-0.405 ± 0.069,-1.81 ± 0.24
TAAATTGATATTGC G10T,-0.7118 ± 0.001,-1.93 ± 0.22

Variant,relative integration efficiency (log2) [1],relative integration efficiency (log2) [2]
TAAATTGATATTGC G10A,0.115 ± 0.017,-0.464 ± 0.17
TAAATACTAATTGC,-0.376 ± 0.27,2.61 ± 0.13
TAAATTGAATAAGC,-0.554 ± 0.076,1.55 ± 0.079
TAAATTGAAATTGC,-0.187 ± 0.13,1.06 ± 0.27
TAAATTGATTAACC,-0.157 ± 0.13,1.35 ± 0.077
TAAATTGATATTGC T44C,-0.0775 ± 0.082,-0.274 ± 0.09
TATTAAGATATTGC,-0.535 ± 0.084,1.66 ± 0.11
ATTATTGATATTGC A62T,-0.325 ± 0.075,1.957 ± 0.011
ATTTAACTATAACG T40C,-1.72 ± 0.32,1.196 ± 0.0054
ATTTAACTATAACG T40A,-1.01 ± 0.19,1.82 ± 0.13
TAAATTGATATTGC C18G,-0.199 ± 0.036,-0.152 ± 0.14
TAAATTGATATTGC C18A,-0.147 ± 0.1,-0.272 ± 0.024
TAAATTGATATTGC C18T,0.131 ± 0.1,-0.605 ± 0.2
ATTTAACTATAACG A47T,-1.17 ± 0.26,1.84 ± 0.026
TAAATTGATATTGC A16G,-0.119 ± 0.073,-0.0536 ± 0.39
ATTTAACTATAACG A11C,-0.753 ± 0.07,1.51 ± 0.15
ATTTAACTATAACG A11T,-0.284 ± 0.19,2.19 ± 0.049
TAAATGTATATTGC,-0.000422 ± 0.028,2.416 ± 0.0088
TAAATTGATCGTGC,-0.217 ± 0.047,0.973 ± 0.038
TAAATTGATATTGC T45A,-0.307 ± 0.056,-0.351 ± 0.41

Variant,relative integration efficiency (log2) [1],relative integration efficiency (log2) [2]
TAAATTGATATTGC T45G,-0.479 ± 0.082,-0.522 ± 0.1
TAAATTGATATTGC T45C,-0.0459 ± 0.091,-0.285 ± 0.21
ATTTAACTATAACG A19C,-1.84 ± 0.3,1.06 ± 0.42
ATTTAACTATAACG A19G,-0.904 ± 0.018,2.08 ± 0.037
ATTTAACTATAACG A29C,-1.83 ± 0.43,1.8 ± 0.15
TAAATTGATATTGC A15G,-0.381 ± 0.0063,-0.228 ± 0.029
TAAATTGATATTGC A15C,0.297 ± 0.19,0.449 ± 0.3
ATTTAACTATAACG A24C,-0.878 ± 0.18,2.28 ± 0.015
ATTTAACTATAACG A24G,-0.674 ± 0.13,2.25 ± 0.086
ATTTAACTATAACG C55G,-1.37 ± 0.28,2.381 ± 0.011
ATTTAACTATAACG C55T,-1.15 ± 0.35,2.56 ± 0.14
ATTTAACTATAACG C55A,-1.63 ± 0.35,2.34 ± 0.071
TAAATACATATTGC,-0.637 ± 0.26,2.3 ± 0.041
ATTTAACTATAACG C57G,-0.953 ± 0.42,2.5 ± 0.16
ATTTAACTATAACG C57A,-0.68 ± 0.085,2.48 ± 0.17
TAAATTGATATTGC A19T,-0.574 ± 0.03,-0.267 ± 0.084
TAAATTGATATTGC A19C,-1.18 ± 0.12,-1.16 ± 0.11
TAAATTGGTATTGC,0.0075 ± 0.082,0.963 ± 0.065
